Common to all, as to test: Phos-tag gel autophosphorylation, initial rates, Michaelis-Menten fit
Common to all, as to type: biochemical, Bacteroides thetaiotaomicron
Holding throughout (conditions): phospho-donor, 50 mM Tris pH 7.5, 100 mM NaCl, 5 mM BME, 5 mM MgSO4, 5 µM protein

The subject of data set [1] is NP(=O)(O)O. The source says: Phos-tag gel autophosphorylation, initial rates, Michaelis-Menten fit on BT3334-REC | RECs have higher kcat and lower Km values than RRs
The subject of data set [2] is NP(=O)(O)O. An excerpt: Phos-tag gel autophosphorylation, initial rates, Michaelis-Menten fit on BT3334-RR | RECs have higher kcat and lower Km values than RRs
This is another data set of the same source.

The subject of data set [3] is NP(=O)(O)O. The source says:
Phos-tag gel autophosphorylation, initial rates, Michaelis-Menten fit on BT4124-REC | RECs have higher kcat and lower Km values than RRs
This is another data set of the same source.

Data set [4] deals with NP(=O)(O)O. This is another data set of the same source.
Data set [5] concerns NP(=O)(O)O. An excerpt:
Phos-tag gel autophosphorylation, initial rates, Michaelis-Menten fit on BT4124-RR | RECs have higher kcat and lower Km values than RRs
This is another data set of the same source.

In data set [6] the test system is NP(=O)(O)O. The source says:
Phos-tag gel autophosphorylation, initial rates, Michaelis-Menten fit on BT4663-REC | RECs have higher kcat and lower Km values than RRs
The source holds these as a separate data set.

The test system of data set [7] is NP(=O)(O)O. The source says: Phos-tag gel autophosphorylation, initial rates, Michaelis-Menten fit on BT4663-RR | RECs have higher kcat and lower Km values than RRs
The source holds these as a separate data set.

Turning to “BT3334-REC (Bacteroides thetaiotaomicron VPI-5482)”, in the data set on NP(=O)(O)O [1], the Km (usually the concentration of substrate that gives half-maximal velocity) amounted to 4.5 ± 0.8 mM; the kcat (commonly the number of substrate molecules converted per active site and unit of time at saturation) was determined as 0.02 ± 0.0017 s⁻¹.

“BT3334-RR (Bacteroides thetaiotaomicron VPI-5482)”: in the data set on NP(=O)(O)O [2], the Km is reported as 7.8 ± 2.4 mM and the kcat was 0.0095 ± 0.00083 s⁻¹.

Take “BT4124-REC (Bacteroides thetaiotaomicron VPI-5482)”: in the data set with NP(=O)(O)O [3], the Km is 10 ± 1 mM and the kcat stood at 0.0233 ± 0.0017 s⁻¹.

“BT4124-REC (Bacteroides thetaiotaomicron VPI-5482; C1262A/H1263D)”: in the data set with NP(=O)(O)O [4], the Km turned out to be 13 ± 2 mM and the kcat is 0.0267 ± 0.0017 s⁻¹.

For the substance “BT4124-RR (Bacteroides thetaiotaomicron VPI-5482)”, in the data set with NP(=O)(O)O [5], the Km is 17 ± 2 mM and the kcat worked out at 0.00833 ± 0.0005 s⁻¹.

With “BT4124-RR (Bacteroides thetaiotaomicron VPI-5482; C1262A/H1263D)”, in the data set on NP(=O)(O)O [4], the Km turned out to be 8.5 ± 1.5 mM and the kcat came to 0.02 ± 0.0017 s⁻¹.

As to “BT4124-RR (Bacteroides thetaiotaomicron VPI-5482; C1262A/H1263G)”, in the data set with NP(=O)(O)O [4], the Km came to 13 ± 3 mM and the kcat worked out at 0.0183 ± 0.0017 s⁻¹.

With “BT4663-REC (Bacteroides thetaiotaomicron VPI-5482)”, in the data set with NP(=O)(O)O [6], the Km was determined as 14 ± 4 mM and the kcat came to 0.0135 ± 0.0017 s⁻¹.

Regarding “BT4663-RR (Bacteroides thetaiotaomicron VPI-5482)”, in the data set with NP(=O)(O)O [7], the Km is recorded as 33 ± 6 mM and the kcat turned out to be 0.0035 ± 0.00033 s⁻¹.

(Values after publication PMC11253607, “A conserved inhibitory interdomain interaction regulates DNA-binding activities of hybrid two-component systems in Bacteroides” (mBio, 2024).)
